Our source for the HEK-Blue IL-12 reporter assay, fold reduction in potency (fold (vs IL-12 Fc w.t.)) and HEK-Blue IL-12 reporter assay, fold reduction in EC50 value (fold (vs wild-type)) values is US20240150422A1.

Sequence of IL-12 receptor on HEK-Blue IL-12 cells (InvivoGen) (human) (chain, as listed by the source limits assumed, chain 2 of 2, other chains not shown): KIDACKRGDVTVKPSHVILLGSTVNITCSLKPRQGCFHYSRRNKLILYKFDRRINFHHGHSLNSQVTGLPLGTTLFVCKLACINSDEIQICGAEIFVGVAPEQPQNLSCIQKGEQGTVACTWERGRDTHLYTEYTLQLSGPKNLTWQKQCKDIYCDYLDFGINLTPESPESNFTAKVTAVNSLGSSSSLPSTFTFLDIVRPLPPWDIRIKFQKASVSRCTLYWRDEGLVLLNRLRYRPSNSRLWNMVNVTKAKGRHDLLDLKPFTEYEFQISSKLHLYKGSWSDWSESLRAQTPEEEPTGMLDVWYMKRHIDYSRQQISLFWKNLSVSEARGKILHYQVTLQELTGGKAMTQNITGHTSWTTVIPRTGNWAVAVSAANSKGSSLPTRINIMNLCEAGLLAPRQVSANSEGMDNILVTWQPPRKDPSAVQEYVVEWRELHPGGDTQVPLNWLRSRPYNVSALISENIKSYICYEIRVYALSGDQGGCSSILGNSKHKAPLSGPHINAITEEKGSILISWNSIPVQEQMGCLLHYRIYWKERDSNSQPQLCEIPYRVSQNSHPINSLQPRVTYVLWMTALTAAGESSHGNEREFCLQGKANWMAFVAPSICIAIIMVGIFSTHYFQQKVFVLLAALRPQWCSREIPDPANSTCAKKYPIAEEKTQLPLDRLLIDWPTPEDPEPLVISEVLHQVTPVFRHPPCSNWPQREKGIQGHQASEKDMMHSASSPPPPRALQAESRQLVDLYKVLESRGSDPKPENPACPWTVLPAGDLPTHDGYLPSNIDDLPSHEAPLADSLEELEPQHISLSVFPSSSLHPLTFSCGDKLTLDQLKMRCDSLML

The test has as its target IL-12 receptor on HEK-Blue IL-12 cells (InvivoGen) (human) (UniProt P42701). Briefly: cell-based or functional assay.
Turning to “IL-12 Fc double mutant Y40A/D126A (format of Example 1) (from UniProt P29459 23-219; P29460 23-328) (Fc fusion)”, the HEK-Blue IL-12 reporter assay, fold reduction in potency (fold (vs IL-12 Fc w.t.)) is 38.

“IL-12 Fc double mutant Y40A/K168A (Example 7) (from UniProt P29459 23-219; P29460 23-328) (Fc fusion)” registered an HEK-Blue IL-12 reporter assay, fold reduction in EC50 value (fold (vs wild-type)) of 67.

Substance “IL-12 Fc double mutant Y40A/K170A (Example 7) (from UniProt P29459 23-219; P29460 23-328) (Fc fusion)” yielded an HEK-Blue IL-12 reporter assay, fold reduction in EC50 value (fold (vs wild-type)) of 6540.

As for “IL-12 Fc double mutant Y40A/P127A (format of Example 1) (from UniProt P29459 23-219; P29460 23-328) (Fc fusion)”, the HEK-Blue IL-12 reporter assay, fold reduction in potency (fold (vs IL-12 Fc w.t.)) amounted to 40.

Consider “IL-12 Fc double mutant Y40A/R129A (Example 7) (from UniProt P29459 23-219; P29460 23-328) (Fc fusion)”, for which the HEK-Blue IL-12 reporter assay, fold reduction in EC50 value (fold (vs wild-type)) amounted to 44.

The substance “IL-12 Fc quadruple mutant Y40A/T43A/D126A/P127A (format of Example 1) (from UniProt P29459 23-219; P29460 23-328) (Fc fusion)” had an HEK-Blue IL-12 reporter assay, fold reduction in potency (fold (vs IL-12 Fc w.t.)) of 451.

With “IL-12 Fc triple mutant Y40A/D126A/P127A (format of Example 1) (from UniProt P29459 23-219; P29460 23-328) (Fc fusion)”, the HEK-Blue IL-12 reporter assay, fold reduction in potency (fold (vs IL-12 Fc w.t.)) stood at 404.
